# Measurements: patent US10941182 (Amgen, dated 2021)
# Starred links: 1 amine or outer side, 2 acyl side, 3 side chain; linkers in the order of their positions; H or OH if unused. Non-standard residues stand in square brackets, D forms with d. *: point of attachment. AC4Abu = α-carboxy-4-aminobutyric acid, O=C(C(CCN[*:1])C(=O)[*:3])[*:2]; Oic = O=C(O)[C@@H]1C[C@@H]2CCCC[C@@H]2N1; Phe(4-Cl) = N[C@@H](Cc1ccc(Cl)cc1)C(=O)O; dPhe(4-Cl) = N[C@H](Cc1ccc(Cl)cc1)C(=O)O; γGlu = O=C(O)[C@H](CCC(=O)[*:2])N[*:1]; 1Nal = N[C@@H](Cc1cccc2ccccc12)C(=O)O; 2Nal = N[C@@H](Cc1ccc2ccccc2c1)C(=O)O; NMeR = CN[C@@H](CCCNC(=N)N)C(=O)O; Tridecanoyl = CCCCCCCCCCCCC(=O)*; hArg = N=C(N)NCCCC[C@H](N)C(=O)O; Cha = N[C@@H](CC1CCCCC1)C(=O)O; Aic = NC1(C(=O)O)Cc2ccccc2C1; Tle = CC(C)(C)[C@H](N)C(=O)O; β3hP = O=C(O)C[C@@H]1CCCN1; Nle = CCCC[C@H](N)C(=O)O; Deg = CCC(N)(CC)C(=O)O; AEEA = NCCOCCOCC(=O)O; βAla = NCCC(=O)O
# B1: Apelin polypeptide SEQ ID NO: 478 (peptide)
# peptide: Tridecanoyl-[γGlu][AEEA][AEEA][dQ][hArg]P[NMeR][Cha]SHKG[Oic][Nle]P[Phe(4-Cl)]-OH
# SMILES: CCCCCCCCCCCCC(=O)N[C@@H](CCC(=O)NCCOCCOCC(=O)NCCOCCOCC(=O)N[C@H](CCC(N)=O)C(=O)N[C@@H](CCCCNC(=N)N)C(=O)N1CCC[C@H]1C(=O)N(C)[C@@H](CCCNC(=N)N)C(=O)N[C@@H](CC1CCCCC1)C(=O)N[C@@H](CO)C(=O)N[C@@H](Cc1c[nH]cn1)C(=O)N[C@@H](CCCCN)C(=O)NCC(=O)N1[C@H](C(=O)N[C@@H](CCCC)C(=O)N2CCC[C@H]2C(=O)N[C@@H](Cc2ccc(Cl)cc2)C(=O)O)C[C@@H]2CCCC[C@@H]21)C(=O)O
# B2: Apelin polypeptide SEQ ID NO: 353 (peptide)
# peptide: XXXQRPRLSHKGPXPF
# modifications: {TDA}[AC4Abu][Aeea][Aeea]Q[hArg]P[NMeArg]LSHKGP[Nle]P[4-Cl-F]{COOH}
# B3: Apelin polypeptide SEQ ID NO: 452 (peptide)
# peptide: Tridecanoyl-[γGlu][AEEA][AEEA][dQ][hArg]P[dR][Cha]S[Tle]KG[Oic][Nle]P[Phe(4-Cl)]-OH
# SMILES: CCCCCCCCCCCCC(=O)N[C@@H](CCC(=O)NCCOCCOCC(=O)NCCOCCOCC(=O)N[C@H](CCC(N)=O)C(=O)N[C@@H](CCCCNC(=N)N)C(=O)N1CCC[C@H]1C(=O)N[C@H](CCCNC(=N)N)C(=O)N[C@@H](CC1CCCCC1)C(=O)N[C@@H](CO)C(=O)N[C@H](C(=O)N[C@@H](CCCCN)C(=O)NCC(=O)N1[C@H](C(=O)N[C@@H](CCCC)C(=O)N2CCC[C@H]2C(=O)N[C@@H](Cc2ccc(Cl)cc2)C(=O)O)C[C@@H]2CCCC[C@@H]21)C(C)(C)C)C(=O)O
# B4: Apelin polypeptide SEQ ID NO: 295 (peptide)
# peptide: Tridecanoyl-[γGlu][AEEA][AEEA][dQ][hArg]P[NMeR][Cha]SHKG[Oic][Nle][βAla][dPhe(4-Cl)]-OH
# SMILES: CCCCCCCCCCCCC(=O)N[C@@H](CCC(=O)NCCOCCOCC(=O)NCCOCCOCC(=O)N[C@H](CCC(N)=O)C(=O)N[C@@H](CCCCNC(=N)N)C(=O)N1CCC[C@H]1C(=O)N(C)[C@@H](CCCNC(=N)N)C(=O)N[C@@H](CC1CCCCC1)C(=O)N[C@@H](CO)C(=O)N[C@@H](Cc1c[nH]cn1)C(=O)N[C@@H](CCCCN)C(=O)NCC(=O)N1[C@H](C(=O)N[C@@H](CCCC)C(=O)NCCC(=O)N[C@H](Cc2ccc(Cl)cc2)C(=O)O)C[C@@H]2CCCC[C@@H]21)C(=O)O
# B5: Apelin polypeptide SEQ ID NO: 364 (peptide)
# peptide: Tridecanoyl-[γGlu][AEEA][AEEA]Q[hArg]P[dR][Cha]SHKG[Oic][Nle]P[D‑4ClF]-OH
# B6: Apelin polypeptide SEQ ID NO: 363 (peptide)
# peptide: Tridecanoyl-[γGlu][AEEA][AEEA][dQ][hArg]P[dR][Cha]SHKG[Oic][Nle]P[Phe(4-Cl)]-OH
# B7: Apelin polypeptide SEQ ID NO: 365 (peptide)
# peptide: Tridecanoyl-[γGlu][AEEA][AEEA][dQ][hArg]P[dR][Cha]SHKG[Oic][Nle]P[Oic]-OH
# B8: Apelin polypeptide SEQ ID NO: 366 (peptide)
# peptide: Tridecanoyl-[γGlu][AEEA][AEEA][dQ][hArg]P[dR][Cha]SHKG[Oic][Nle]P[Aic]-OH
# B9: Apelin polypeptide SEQ ID NO: 405 (peptide)
# peptide: Tridecanoyl-[AC4Abu][AEEA][AEEA]Q[hArg]P[NMeR][Cha]SHKG[Oic][Nle]P[2Nal]-OH
# SMILES: CCCCCCCCCCCCC(=O)NCCC(C(=O)O)C(=O)NCCOCCOCC(=O)NCCOCCOCC(=O)N[C@@H](CCC(N)=O)C(=O)N[C@@H](CCCCNC(=N)N)C(=O)N1CCC[C@H]1C(=O)N(C)[C@@H](CCCNC(=N)N)C(=O)N[C@@H](CC1CCCCC1)C(=O)N[C@@H](CO)C(=O)N[C@@H](Cc1c[nH]cn1)C(=O)N[C@@H](CCCCN)C(=O)NCC(=O)N1[C@H](C(=O)N[C@@H](CCCC)C(=O)N2CCC[C@H]2C(=O)N[C@@H](Cc2ccc3ccccc3c2)C(=O)O)C[C@@H]2CCCC[C@@H]21
# B10: Apelin polypeptide SEQ ID NO: 372 (peptide)
# peptide: Tridecanoyl-[γGlu][AEEA][AEEA][dQ][hArg]P[dR][Cha]SAKG[Oic][Nle]P[Phe(4-Cl)]-OH
# SMILES: CCCCCCCCCCCCC(=O)N[C@@H](CCC(=O)NCCOCCOCC(=O)NCCOCCOCC(=O)N[C@H](CCC(N)=O)C(=O)N[C@@H](CCCCNC(=N)N)C(=O)N1CCC[C@H]1C(=O)N[C@H](CCCNC(=N)N)C(=O)N[C@@H](CC1CCCCC1)C(=O)N[C@@H](CO)C(=O)N[C@@H](C)C(=O)N[C@@H](CCCCN)C(=O)NCC(=O)N1[C@H](C(=O)N[C@@H](CCCC)C(=O)N2CCC[C@H]2C(=O)N[C@@H](Cc2ccc(Cl)cc2)C(=O)O)C[C@@H]2CCCC[C@@H]21)C(=O)O
# B11: Apelin polypeptide SEQ ID NO: 371 (peptide)
# peptide: Tridecanoyl-[γGlu][AEEA][AEEA][dQ][hArg]P[dR][Cha]SHK[Tle][Oic][Nle]P[Phe(4-Cl)]-OH
# B12: Apelin polypeptide SEQ ID NO: 451 (peptide)
# peptide: Tridecanoyl-[γGlu][AEEA][AEEA][dQ][hArg]P[dR][Cha]S[Deg]KG[Oic][Nle]P[Phe(4-Cl)]-OH
# SMILES: CCCCCCCCCCCCC(=O)N[C@@H](CCC(=O)NCCOCCOCC(=O)NCCOCCOCC(=O)N[C@H](CCC(N)=O)C(=O)N[C@@H](CCCCNC(=N)N)C(=O)N1CCC[C@H]1C(=O)N[C@H](CCCNC(=N)N)C(=O)N[C@@H](CC1CCCCC1)C(=O)N[C@@H](CO)C(=O)NC(CC)(CC)C(=O)N[C@@H](CCCCN)C(=O)NCC(=O)N1[C@H](C(=O)N[C@@H](CCCC)C(=O)N2CCC[C@H]2C(=O)N[C@@H](Cc2ccc(Cl)cc2)C(=O)O)C[C@@H]2CCCC[C@@H]21)C(=O)O
# B13: Apelin polypeptide SEQ ID NO: 362 (peptide)
# peptide: Tridecanoyl-[γGlu][AEEA][AEEA]Q[hArg]P[NMeR][Cha]SHKG[Oic][Nle]P[Phe(4-Cl)]-OH
# SMILES: CCCCCCCCCCCCC(=O)N[C@@H](CCC(=O)NCCOCCOCC(=O)NCCOCCOCC(=O)N[C@@H](CCC(N)=O)C(=O)N[C@@H](CCCCNC(=N)N)C(=O)N1CCC[C@H]1C(=O)N(C)[C@@H](CCCNC(=N)N)C(=O)N[C@@H](CC1CCCCC1)C(=O)N[C@@H](CO)C(=O)N[C@@H](Cc1c[nH]cn1)C(=O)N[C@@H](CCCCN)C(=O)NCC(=O)N1[C@H](C(=O)N[C@@H](CCCC)C(=O)N2CCC[C@H]2C(=O)N[C@@H](Cc2ccc(Cl)cc2)C(=O)O)C[C@@H]2CCCC[C@@H]21)C(=O)O
# B14: Apelin polypeptide SEQ ID NO: 354 (peptide)
# peptide: Tridecanoyl-[γGlu][AEEA][AEEA]Q[hArg]P[NMeR]LSHKG[Oic][Nle]P[Phe(4-Cl)]-OH
# SMILES: CCCCCCCCCCCCC(=O)N[C@@H](CCC(=O)NCCOCCOCC(=O)NCCOCCOCC(=O)N[C@@H](CCC(N)=O)C(=O)N[C@@H](CCCCNC(=N)N)C(=O)N1CCC[C@H]1C(=O)N(C)[C@@H](CCCNC(=N)N)C(=O)N[C@@H](CC(C)C)C(=O)N[C@@H](CO)C(=O)N[C@@H](Cc1c[nH]cn1)C(=O)N[C@@H](CCCCN)C(=O)NCC(=O)N1[C@H](C(=O)N[C@@H](CCCC)C(=O)N2CCC[C@H]2C(=O)N[C@@H](Cc2ccc(Cl)cc2)C(=O)O)C[C@@H]2CCCC[C@@H]21)C(=O)O
# B15: Apelin polypeptide SEQ ID NO: 367 (peptide)
# peptide: Tridecanoyl-[γGlu][AEEA][AEEA][dQ][hArg]P[dR][Cha]SHKG[Oic][Nle]P[1Nal]-OH
# B16: Apelin polypeptide SEQ ID NO: 296 (peptide)
# peptide: Tridecanoyl-[γGlu][AEEA][AEEA][dQ][hArg]P[NMeR][Cha]SHKG[Oic][Nle][β3hP][dPhe(4-Cl)]-OH
# SMILES: CCCCCCCCCCCCC(=O)N[C@@H](CCC(=O)NCCOCCOCC(=O)NCCOCCOCC(=O)N[C@H](CCC(N)=O)C(=O)N[C@@H](CCCCNC(=N)N)C(=O)N1CCC[C@H]1C(=O)N(C)[C@@H](CCCNC(=N)N)C(=O)N[C@@H](CC1CCCCC1)C(=O)N[C@@H](CO)C(=O)N[C@@H](Cc1c[nH]cn1)C(=O)N[C@@H](CCCCN)C(=O)NCC(=O)N1[C@H](C(=O)N[C@@H](CCCC)C(=O)N2CCC[C@H]2CC(=O)N[C@H](Cc2ccc(Cl)cc2)C(=O)O)C[C@@H]2CCCC[C@@H]21)C(=O)O
# How the values were obtained:
# [1] = target: T1, human APJ receptor (human, UniProt P35414 1-380); experiment: cell-based or functional assay
# T1 sequence (looked up): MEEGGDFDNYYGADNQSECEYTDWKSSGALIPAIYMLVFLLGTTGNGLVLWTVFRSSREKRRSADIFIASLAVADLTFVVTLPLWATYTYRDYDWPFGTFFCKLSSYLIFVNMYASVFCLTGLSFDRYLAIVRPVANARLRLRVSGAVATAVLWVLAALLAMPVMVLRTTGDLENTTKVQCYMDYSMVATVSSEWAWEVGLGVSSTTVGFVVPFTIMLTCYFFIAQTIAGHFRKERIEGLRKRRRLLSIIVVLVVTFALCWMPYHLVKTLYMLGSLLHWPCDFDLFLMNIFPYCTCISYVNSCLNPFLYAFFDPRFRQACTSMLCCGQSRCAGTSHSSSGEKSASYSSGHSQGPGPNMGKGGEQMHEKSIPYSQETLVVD
# [2] = target: T2, rat APJ receptor (rat, UniProt Q9JHG3 1-377); experiment: cell-based or functional assay
# T2 sequence (looked up): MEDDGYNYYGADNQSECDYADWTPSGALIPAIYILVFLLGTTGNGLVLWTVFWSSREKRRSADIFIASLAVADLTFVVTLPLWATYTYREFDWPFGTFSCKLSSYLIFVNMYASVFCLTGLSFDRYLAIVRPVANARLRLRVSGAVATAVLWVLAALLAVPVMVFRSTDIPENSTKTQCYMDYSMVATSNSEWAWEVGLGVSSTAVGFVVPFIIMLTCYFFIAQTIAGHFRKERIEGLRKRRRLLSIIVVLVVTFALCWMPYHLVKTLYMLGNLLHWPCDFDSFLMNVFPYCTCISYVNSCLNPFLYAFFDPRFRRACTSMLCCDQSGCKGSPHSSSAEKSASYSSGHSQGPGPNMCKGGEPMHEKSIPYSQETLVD
Binder,EC50 Human APJ Receptor (GTPγS assay) [1] [nM],EC50 Rat APJ Receptor (GTPγS assay) [2] [nM]
B1,0.496,0.807
B2,0.095,0.275
B3,10.4,25
B4,3.29,10.4
B5,6,20.4
B6,3.27,3.96
B7,23,20.7
B8,17.1,23.6
B9,5.75,13.8
B10,2.84,1.5
B11,6.92,4.67
B12,11.2,31.6
B13,1.97,3.75
B14,0.279,0.361
B15,26.3,67.5
B16,2.75,2.32
